Assay results taken from paper PMC11960969, “Mdga2 deficiency leads to an aberrant activation of BDNF/TrkB signaling that underlies autism-relevant synaptic and behavioral changes in mice” (PLOS Biology, 2025).

Experiments:
[1] = biological target: T1, recombinant TrkB protein (full-length human TrkB, His) (human, UniProt Q16620 32-822); test: pull-down; purified human TrkB protein incubated with GST-fused MDGA2-L1, MDGA2-L2 or GST and pulled down with Glutathione Sepharose 4B; immunoblot; settings: both partners purified
T1 construct: TrkB, human, full-length cDNA in the pcDNA6-His vector; also called purified human TrkB protein; human TrkB protein; source: HEK293T, purified (His-tag Protein Purification Kit)
T1 sequence (Q16620 32-822): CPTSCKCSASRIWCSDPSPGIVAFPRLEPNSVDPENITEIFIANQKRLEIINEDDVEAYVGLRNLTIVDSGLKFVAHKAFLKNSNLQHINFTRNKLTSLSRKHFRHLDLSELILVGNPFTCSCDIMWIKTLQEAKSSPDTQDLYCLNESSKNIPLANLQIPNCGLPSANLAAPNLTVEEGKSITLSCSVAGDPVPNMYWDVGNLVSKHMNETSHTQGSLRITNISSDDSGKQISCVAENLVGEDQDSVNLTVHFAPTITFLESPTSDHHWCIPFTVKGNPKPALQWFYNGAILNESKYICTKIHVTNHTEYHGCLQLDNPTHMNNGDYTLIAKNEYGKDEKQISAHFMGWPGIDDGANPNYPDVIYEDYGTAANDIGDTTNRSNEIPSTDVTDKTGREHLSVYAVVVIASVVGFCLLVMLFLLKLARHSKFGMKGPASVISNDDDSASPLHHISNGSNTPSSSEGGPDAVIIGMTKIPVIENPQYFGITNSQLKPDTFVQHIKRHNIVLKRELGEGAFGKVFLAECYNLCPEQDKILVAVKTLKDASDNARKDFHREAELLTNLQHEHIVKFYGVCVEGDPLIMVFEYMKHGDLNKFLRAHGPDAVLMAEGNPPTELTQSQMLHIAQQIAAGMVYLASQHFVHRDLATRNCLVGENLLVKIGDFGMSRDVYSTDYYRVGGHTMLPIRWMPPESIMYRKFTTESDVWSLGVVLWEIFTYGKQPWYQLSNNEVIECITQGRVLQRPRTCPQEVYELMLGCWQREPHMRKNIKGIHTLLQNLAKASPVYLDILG

[2] = biological target: T1, recombinant TrkB protein (full-length …); test: SPR; TrkB immobilised on a Biacore CM5 chip by amine coupling; recombinant MDGA2 protein or MDGA2-P2 peptide flowed over at a series of concentrations; Biacore T100 Evaluation software; settings: both partners purified

Binder	binding result [1]	Kd [2] [nM]
NADRSGSKEGFYMYIETSRPRLEGEKARLLSPVFSIAPKNPYGPTNT (domain or fragment, human, UniProt Q7Z553 787-833, looked up, MDGA2, human, residues 787-833 (L2, second segment of the M1 half of the MAM domain); also called GST-tagged L2; source: bacteria, purified (Glutathione Sepharose 4B)) [GST-fused MDGA2-L2 (MDGA2 aa 787-833)]	binds	
KARLLSPVFSIAPKNPYGPTNT (MDGA2, human, residues 812-833 (P2); The methods tell the synthesis only of the biotin-labeled peptide; also called MDGA2-derived peptide; source: synthetic peptide) [MDGA2-P2 peptide (aa 812-833), label not stated]		9.2
